Test results: article PMC12808597, “Spatially diffuse cAMP signalling with oppositely biased GLP-1 receptor agonists in β-cells despite differences in receptor localisation” (Molecular Metabolism, 2025)

How the values were obtained:
[1] = biological target: GLP-1R endogenous in wild-type mouse pancreatic islets (mouse (endogenous in C57Bl/6J islets)) (UniProt O35659); experiment: imaging of fluorescent ligand in intact islets; wild-type mouse islets, 1 nM TMR-agonist, continuous 60 min or 10 min then exendin(9-39) washout
Chain of GLP-1R endogenous in wild-type mouse pancreatic islets (mouse (endogenous in C57Bl/6J islets)) (O35659 22-463): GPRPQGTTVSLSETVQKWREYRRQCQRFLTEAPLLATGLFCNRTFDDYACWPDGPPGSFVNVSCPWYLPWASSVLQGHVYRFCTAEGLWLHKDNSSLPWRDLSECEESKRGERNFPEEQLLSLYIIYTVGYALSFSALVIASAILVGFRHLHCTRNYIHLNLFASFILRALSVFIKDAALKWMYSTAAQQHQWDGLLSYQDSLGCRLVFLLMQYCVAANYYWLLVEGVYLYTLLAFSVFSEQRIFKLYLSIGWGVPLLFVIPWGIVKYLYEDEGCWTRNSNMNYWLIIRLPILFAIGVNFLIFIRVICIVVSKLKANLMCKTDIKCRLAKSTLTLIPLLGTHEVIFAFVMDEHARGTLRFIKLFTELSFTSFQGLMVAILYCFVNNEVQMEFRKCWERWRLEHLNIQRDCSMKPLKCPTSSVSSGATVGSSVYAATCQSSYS

[2] = biological target: human glucagon-like peptide-1 receptor, untagged (human) (UniProt P43220); experiment: imaging of fluorescent ligand bound to cells; Cy5- or TMR-agonist over a concentration range, 30 min stimulation; AD293 cells expressing untagged hGLP-1R or mGLP-1R, or wild-type INS-1 832/3 cells (non-specific binding from INS-1 832/3 Glp1r-/- cells subtracted); 'functional affinities'
Chain of human glucagon-like peptide-1 receptor, untagged (human) (P43220 24-463): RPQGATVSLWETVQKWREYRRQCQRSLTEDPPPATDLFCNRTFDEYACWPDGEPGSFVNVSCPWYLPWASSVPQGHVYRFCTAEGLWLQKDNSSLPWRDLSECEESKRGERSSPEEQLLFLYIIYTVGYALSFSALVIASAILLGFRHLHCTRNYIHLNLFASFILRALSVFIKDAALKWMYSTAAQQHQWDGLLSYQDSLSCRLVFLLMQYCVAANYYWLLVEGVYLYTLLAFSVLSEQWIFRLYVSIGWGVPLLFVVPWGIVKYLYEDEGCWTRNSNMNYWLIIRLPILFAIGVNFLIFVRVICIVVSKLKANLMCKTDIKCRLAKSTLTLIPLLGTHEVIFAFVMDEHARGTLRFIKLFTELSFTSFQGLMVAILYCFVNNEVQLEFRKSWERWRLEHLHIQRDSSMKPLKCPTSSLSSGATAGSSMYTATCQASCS

[3] = biological target: mouse glucagon-like peptide-1 receptor, untagged (mouse) (UniProt O35659); experiment: as above
Chain of mouse glucagon-like peptide-1 receptor, untagged (mouse) (O35659 22-463): as the sequence (O35659 22-463) above

[4] = biological target: mouse glucagon-like peptide-1 receptor, untagged (mouse) (UniProt O35659); experiment: imaging of fluorescent ligand bound to cells; washout: TMR-agonist detected at 60 min in AD293 cells transiently expressing untagged GLP-1R, with or without 20 uM exendin(9-39) applied 10 min after agonist

Substance	total ligand bound after washout relative to continuously applied ExF1 [1] [fold]	fold lower affinity than the Cy5 equivalent [2] [fold]	fold lower affinity than the Cy5 equivalent [3] [fold]	percent reduction of total ExD3-TMR binding by washout with 20 uM exendin(9-39) [4] [%]
exendin-asp3 tetramethylrhodamine conjugate (peptide)	2	5	3	–
exendin(9–39) (peptide)	–	–	–	50
exendin-phe1 tetramethylrhodamine conjugate (peptide)	–	5	3	–
